This is an account of results in CN117396514A (ELEKTA S R L, dated 2024).

In test [1] the target is T1, 人MerTK, M2c分化的人巨噬细胞上 (human, UniProt Q12866 21-999).
T1 sequence: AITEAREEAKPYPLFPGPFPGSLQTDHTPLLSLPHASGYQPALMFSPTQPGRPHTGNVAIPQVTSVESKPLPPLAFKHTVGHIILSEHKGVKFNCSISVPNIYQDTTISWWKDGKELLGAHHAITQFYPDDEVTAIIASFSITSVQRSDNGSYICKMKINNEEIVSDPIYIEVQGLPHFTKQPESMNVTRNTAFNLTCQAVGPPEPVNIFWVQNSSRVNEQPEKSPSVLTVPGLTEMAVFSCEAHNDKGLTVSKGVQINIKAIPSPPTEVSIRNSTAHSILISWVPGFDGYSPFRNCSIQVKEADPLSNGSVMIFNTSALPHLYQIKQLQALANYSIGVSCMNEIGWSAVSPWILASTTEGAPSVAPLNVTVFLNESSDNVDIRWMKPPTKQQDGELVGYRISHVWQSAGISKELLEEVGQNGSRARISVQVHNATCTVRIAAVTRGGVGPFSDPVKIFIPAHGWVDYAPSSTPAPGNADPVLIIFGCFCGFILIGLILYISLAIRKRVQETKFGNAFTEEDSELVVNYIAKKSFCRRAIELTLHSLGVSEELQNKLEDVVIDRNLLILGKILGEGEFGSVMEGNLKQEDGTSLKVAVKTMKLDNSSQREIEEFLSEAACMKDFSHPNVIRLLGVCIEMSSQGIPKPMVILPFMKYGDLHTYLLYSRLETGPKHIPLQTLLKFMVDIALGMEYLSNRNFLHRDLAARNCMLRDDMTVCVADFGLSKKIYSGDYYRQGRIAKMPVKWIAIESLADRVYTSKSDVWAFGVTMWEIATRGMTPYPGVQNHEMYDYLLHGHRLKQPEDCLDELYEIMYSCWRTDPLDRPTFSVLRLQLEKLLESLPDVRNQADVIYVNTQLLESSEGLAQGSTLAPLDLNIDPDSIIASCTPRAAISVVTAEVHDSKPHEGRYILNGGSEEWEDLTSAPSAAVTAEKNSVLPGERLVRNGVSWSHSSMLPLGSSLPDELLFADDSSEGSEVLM
In words: cell-based or functional assay.

For test [2], the target named is T1, 人MerTK, M2c分化的人巨噬细胞上. The test can be described thus: FACS, Dylight650-conjugated antibody titrated on M2c differentiated human macrophages; Kd from MFI by Prism (EC50-like).

B1: 单价(单臂)抗MerTK抗体MTK-33.11 (Fc LALAPS) (antibody, V domains shown)
VH: QVQLVQSGAEVKKPGASVKVSCKASGYTFTSYWMHWVRQAPGQGLEWIGVIDPSDNYINYNQKFQGRVTMTRDTSTSTVYMELSSLRSEDTAVYYCAREAWTRGYFDYWGQGTLVTVSS
VL: DIQMTQSPSSLSASVGDRVTITCQASRSVRNTVAWYQQKPGKAPKLLIYYASNRYTGVPSRFSGSGSGTDFTFTISSLQPEDIATYYCQQDYRSPFTFGQGTKLEIK
modifications: Dylight650 conjugate in the FACS binding assay (site not stated)
Turning to B1, the “胞葬作用 IC50 (efferocytosis of pHrodo-labelled apoptotic Jurkat cells by M2c human macrophages)” value (shortened to “胞葬作用 IC50”) with 人MerTK, M2c分化的人巨噬细胞上 [1] was around 4.4 nM.

B2: 单价(单臂)抗MerTK抗体MTK-16.2 (Fc LALAPS) (antibody, V domains shown)
VH: QVQLVQSGSELKKPGASVKVSCKASGYTFTNHGMNWVRQAPGQGLEWMGWINTYTGEPTYADDFKGRFVFSLDTSVSTAYLQISSLKAEDTAVYYCARKGVTAARYFDYWGQGTLVTVSS
VL: DIQMTQSPSSLSASVGDRVTITCRASQNVRTAVAWYQQKPGKAPKRLIYLASNRHTGVPSRFSGSGSGTEFTLTISNLQPEDFATYYCLQHWNYPLTFGGGTKLEIK
modifications: Dylight650 conjugate in the FACS binding assay (site not stated)
Broadly, the Kd is the constant that tells how readily two partners part at equilibrium. A high value points to lower affinity. As for B2, the Kd with 人MerTK, M2c分化的人巨噬细胞上 [2] was around 78 nM. The “胞葬作用 IC50” value with 人MerTK, M2c分化的人巨噬细胞上 [1] amounted to 37.9 nM.

B3: 二价(全IgG)抗MerTK抗体MTK-16.2 (Fc LALAPS) (antibody, V domains shown)
VH: QVQLVQSGSELKKPGASVKVSCKASGYTFTNHGMNWVRQAPGQGLEWMGWINTYTGEPTYADDFKGRFVFSLDTSVSTAYLQISSLKAEDTAVYYCARKGVTAARYFDYWGQGTLVTVSS
VL: DIQMTQSPSSLSASVGDRVTITCRASQNVRTAVAWYQQKPGKAPKRLIYLASNRHTGVPSRFSGSGSGTEFTLTISNLQPEDFATYYCLQHWNYPLTFGGGTKLEIKR
modifications: Dylight650 conjugate in the FACS binding assay (site not stated)
In the test with 人MerTK, M2c分化的人巨噬细胞上 [2], B3 came in with a Kd of around 52 nM. For the same molecule, the “胞葬作用 IC50” value with 人MerTK, M2c分化的人巨噬细胞上 [1] is 0.436 nM.
